According to patent publication US20230121775A1 (AMUNIX PHARMACEUTICALS, published 2023):
Where a chain is given by its changes, count along the chain named.

B1: CD3.9 scFv (parental anti-CD3 scFv) (scFv)
scFv: ELVVTQEPSLTVSPGGTVTLTCRSSTGAVTTSNYANWVQQKPGQAPRGLIGGTNKRAPGTPARFSGSLLGGKAALTLSGVQPEDEAEYYCALWYSNLWVFGGGTKLTVLGATPPETGAETESPGETTGGSAESEPPGEGEVQLLESGGGLVQPGGSLKLSCAASGFTFNTYAMNWVRQAPGKGLEWVARIRSKYNNYATYYADSVKDRFTISRDDSKNTAYLQMNNLKTEDTAVYYCVRHGNFGNSYVSWFAYWGQGTLVTVSS
notes: VL-linker-VH scFv; also called hCD3.9; aCD3.9
B2: CD3.25 scFv (scFv)
scFv: B1 scFv with L10H, T31S, N54I, S95P, L150I, A220V, G241E, Y253H
notes: VL-linker-VH scFv
B3: CD3.23 scFv (scFv)
scFv: B1 scFv with T26N, T31S, E87V, S95P, L150I, A220V, G241E, Y253H
notes: VL-linker-VH scFv; also called hCD3.23; aCD3.23
B4: CD3.24 scFv (scFv)
scFv: B1 scFv with T26N, A28E, N54I, E87V, S95P, L150I, A220V, G241E, Y253H
notes: VL-linker-VH scFv
B5: CD3.26 scFv (scFv)
scFv: B1 scFv with L10H, A28E, N54I, S95P, L150I, A220V, G241E, Y253H
notes: VL-linker-VH scFv

target: Biotinylated CD3(Eµ antigen (Creative Biomart) (UniProt P07766 23-126, biotinylated (site not stated))); assay: BLI (ForteBio BLItz), biotinylated CD3 antigen on streptavidin biosensor, scFv in solution
Sequence (P07766 23-126): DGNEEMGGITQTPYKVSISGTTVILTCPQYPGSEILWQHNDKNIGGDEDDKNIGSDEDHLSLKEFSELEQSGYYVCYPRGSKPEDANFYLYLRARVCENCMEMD

In order of falling Kd:
1. B4  296 nM
2. B5  221 nM
3. B2  215 nM
4. B3  175 nM
5. B1  75 nM
